B1: securin-TBE (wt) (dsDNA)
DNA 1: ATAAATCACTATCAAAGGATAGAATTT
DNA 2: AAATTCTATCCTTTGATAGTGATTTAT
B2: securin-mutTBE (mt) (dsDNA)
DNA 1: ATAAATCACTGCCAAAGGATAGAATTT
DNA 2: AAATTCTATCCTTTGGCAGTGATTTAT

Target: GST-TCF-4 DBD (UniProt Q9NQB0 265-496)
Assay: EMSA; EMSA, 0.5 ug GST-TCF-4 DBD or GST; buffer, salt, pH and temperature not stated (as in Hlubek et al 2004)
Conditions: protein: recombinant; tags: GST; label: end label (probe); blunt

GST-TCF-4 DBD, sequence (Q9NQB0 265-496): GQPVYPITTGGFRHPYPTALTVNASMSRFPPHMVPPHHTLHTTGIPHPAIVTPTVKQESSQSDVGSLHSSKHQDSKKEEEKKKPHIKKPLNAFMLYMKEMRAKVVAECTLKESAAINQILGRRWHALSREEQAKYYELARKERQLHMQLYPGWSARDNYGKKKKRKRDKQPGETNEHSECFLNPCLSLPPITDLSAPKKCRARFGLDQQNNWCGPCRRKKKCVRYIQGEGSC

Row | Binder | binding result
1 | B1 | binds
2 | B2 | no binding

Source: article PMC2361298, “Securin (hPTTG1) expression is regulated by β-catenin/TCF in human colorectal carcinoma”
